This is an account of results in publication doi:10.1101/2023.10.15.562437, “The guide RNA sequence dictates the slicing kinetics and conformational dynamics of the Argonaute silencing complex”.

Data set [1] has as its target T1, AGO2 D669A (UniProt Q9UKV8 1-859, D669A). In words: hydroxyl-radical footprinting; peaks at 9-11; same at 1, 4 and 15 min; Footprinting: 18 mM HEPES pH 7.4, 100 mM KOAc, 1.2 mM Mg(OAc)2, 0.015 mg/mL BSA, 0.0015 mg/mL yeast tRNA, 0.01% IGEPAL, 8.75 mM DTT, 37 C; filter binding (titra). The following applies: protein: recombinant; tags: N-terminal 3xFLAG; label: 32P 5' end of guide; guide paired to internal site of longer target.

Data set [2] concerns the target T1, AGO2 D669A. Description: hydroxyl-radical footprinting; elevated reactivity at 9-11; Footprinting: 18 mM HEPES pH 7.4, 100 mM KOAc, 1.2 mM Mg(OAc)2, 0.015 mg/mL BSA, 0.0015 mg/mL yeast tRNA, 0.01% IGEPAL, 8.75 mM DTT, 37 C; filter binding (titra). To be noted: protein: recombinant; tags: N-terminal 3xFLAG; label: 32P 5' end of guide; complementary up to guide position 16.

T1 sequence (Q9UKV8 whole entry D669A): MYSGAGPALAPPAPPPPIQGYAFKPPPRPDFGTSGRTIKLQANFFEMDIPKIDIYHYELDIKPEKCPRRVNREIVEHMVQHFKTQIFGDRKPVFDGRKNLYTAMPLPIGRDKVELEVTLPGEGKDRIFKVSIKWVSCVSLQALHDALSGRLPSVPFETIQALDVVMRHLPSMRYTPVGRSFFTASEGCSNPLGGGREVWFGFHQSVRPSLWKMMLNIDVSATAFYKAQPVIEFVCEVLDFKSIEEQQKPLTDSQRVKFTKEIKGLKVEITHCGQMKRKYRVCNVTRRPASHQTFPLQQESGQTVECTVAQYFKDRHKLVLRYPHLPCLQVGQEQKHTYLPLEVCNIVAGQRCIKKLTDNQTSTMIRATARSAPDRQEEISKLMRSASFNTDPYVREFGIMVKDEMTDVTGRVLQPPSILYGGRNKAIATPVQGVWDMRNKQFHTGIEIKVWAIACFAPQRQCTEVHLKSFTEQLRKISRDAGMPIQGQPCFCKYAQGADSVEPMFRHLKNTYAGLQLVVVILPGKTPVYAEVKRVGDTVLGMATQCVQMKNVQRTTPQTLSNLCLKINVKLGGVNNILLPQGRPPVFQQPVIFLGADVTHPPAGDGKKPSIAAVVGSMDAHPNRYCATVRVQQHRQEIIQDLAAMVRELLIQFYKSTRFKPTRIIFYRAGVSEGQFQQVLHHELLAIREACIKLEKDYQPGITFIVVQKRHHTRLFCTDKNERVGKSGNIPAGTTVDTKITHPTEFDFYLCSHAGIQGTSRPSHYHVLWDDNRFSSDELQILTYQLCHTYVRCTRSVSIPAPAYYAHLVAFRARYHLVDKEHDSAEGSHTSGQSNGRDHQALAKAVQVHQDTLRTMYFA

B1: miR-196a guide + perfect target (dsRNA)
RNA 1: UAGGUAGUUUCAUGUUGUUGGG
RNA 2: GGGAACAACAACAACAACAACAACAACAACAACCCAACAACAUGAAACUACCUAAACAACAACAACAACA
modifications: guide 5' phosphate
B1: the binding result with AGO2 D669A [1] is given as “binds”.

B2: miR-124 guide + 16-bp target (dsRNA)
RNA 1: UAAGGCACGCGGUGAAUGCCAA
RNA 2: GGGAACAACAACAACAACAACAACAACAACAAAAUUUUUUCACCGCGUGCCUUAAACAACAACAACAACA
modifications: guide 5' phosphate
As for B2, the binding result in the data set with AGO2 D669A [2] was “binds”.
